Data published in the supplement of paper PMC11246515.
± gives the standard deviation of the averaged measurements.

Experiment: total protein half-life in vivo (active degradation + dilution); higher = more stable protein
[1] = E. coli NCM3722 delta-clpP delta-lon delta-hslV, growth: N-lim chemostat, doubling time 6 h
[2] = E. coli NCM3722 delta-clpP, growth: N-lim chemostat, doubling time 6 h
[3] = E. coli NCM3722 delta-hslV, growth: N-lim chemostat, doubling time 6 h
[4] = E. coli NCM3722 delta-lon, growth: N-lim chemostat, doubling time 6 h
[5] = E. coli NCM3722 delta-smpB, growth: N-lim chemostat, doubling time 6 h
[6] = wild type E. coli NCM3722, growth: C-lim chemostat, doubling time 3 h
[7] = wild type E. coli NCM3722, growth: C-lim chemostat, doubling time 6 h
[8] = wild type E. coli NCM3722, growth: C-lim chemostat, doubling time 12 h
[9] = wild type E. coli NCM3722, growth: N-lim chemostat, doubling time 6 h
[10] = wild type E. coli NCM3722, growth: N-lim chemostat, doubling time 12 h
[11] = wild type E. coli NCM3722, growth: P-lim chemostat, doubling time 6 h
[12] = wild type E. coli NCM3722, growth: P-lim chemostat, doubling time 12 h

Sequence | total protein half-life in vivo [1] | total protein half-life in vivo [2] | total protein half-life in vivo [3] | total protein half-life in vivo [4] | total protein half-life in vivo [5] | total protein half-life in vivo [6] | total protein half-life in vivo [7] | total protein half-life in vivo [8] | total protein half-life in vivo [9] | total protein half-life in vivo [10] | total protein half-life in vivo [11] | total protein half-life in vivo [12]
MTHDNIDILVVDDDISHCTILQALLRGWGYNVALANSGRQALEQVREQVFDLVLCDVRMAEMDGIATLKEIKALNPAIPVLIMTAYSSVETAVEALKTGALDYLIKPLDFDNLQATLEKALAHTHSIDAETPAVTASQFGMVGKSPAMQHLLSEIALVAPSEATVLIHGDSGTGKELVARAIHASSARSEKPLVTLNCAALNESLLESELFGHEKGAFTGADKRREGRFVEADGGTLFLDEIGDISPMMQVRLLRAIQEREVQRVGSNQIISVDVRLIAATHRDLAAEVNAGRFRQDLYYRLNVVAIEVPSLRQRREDIPLLAGHFLQRFAERNRKAVKGFTPQAMDLLIHYDWPGNIRELENAVERAVVLLTGEYISERELPLAIASTPIPLGQSQDIQPLVEVEKEVILAALEKTGGNKTEAARQLGITRKTLLAKLSR | 5.51 ± 2.1 h | 3.79 ± 0.11 h | 2.98 ± 0.35 h | 4.45 ± 1.4 h | 2.79 ± 0.13 h | 2.64 ± 0.3 h | 3.94 ± 1.3 h | 6.74 ± 1.1 h | 2.89 h | 4.34 ± 0.63 h | 3.93 ± 0.27 h | 7.36 ± 0.67 h
MHQSGSVSLCRSAISVLVATALYSPIALASTVEYGETVDGVVLEKDIQLVYGTANNTKINPGGEQHIKEFGVSNNTEINGGYQYIEMNGAAEYSVLNDGYQIVQMGGAANQTTLNNGVLQVYGAANDTTIKGGRLIVEKDGGAVFVAIEKGGLLEVKEGGFAFAVDQKAGGAIKTTTRAMEVFGTNRLGQFDIKNGIANNMLLENGGSLRVEENDFAYNTTVDSGGLLEVMDGGTVTGVDKKAGGKLIVSTNALEVSGPNSKGQFSIKDGVSKNYELDDGSGLIVMEDTQAIDTILDKHATMQSLGKDTGTKVQANAVYDLGRSYQNGSITYSSKAISENMVINNGRANVWAGTMVNVSVRGNDGILEVMKPQINYAPAMLVGKVVVSEGASFRTHGAVDTSKADVSLENSVWTIIADITTTNQNTLLNLANLAMSDANVIMMDEPVTRSSVTASAENFITLTTNTLSGNGNFYMRTDMANHQSDQLNVTGQATGDFKIFVTDTGASPAAGDSLTLVTTGGGDAAFTLGNAGGVVDIGTYEYTLLDNGNHSWSLAENRAQITPSTTDVLNMAAAQPLVFDAELDTVRERLGSVKGVSYDTAMWSSAINTRNNVTTDAGAGFEQTLTGLTLGIDSRFSREESSTIRGLIFGYSHSDIGFDRGGKGNIDSYTLGAYAGWEHQNGAYVDGVVKVDRFANTIHGKMSNGATAFGDYNSNGAGAHVESGFRWVDGLWSVRPYLAFTGFTTDGQDYTLSNGMRADVGNTRILRAEAGTAVSYHMDLQNGTTLEPWLKAAVRQEYADSNQVKVNDDGKFNNDVAGTSGVYQAGIRSSFTPTLSGHLSVSYGNGAGVESPWNTQAGVVWTF | 5.12 h |  |  |  |  |  |  |  |  |  |  | 
MKYRIALAVSLFALSAGSYATTLCQEKEQNILKEISYAEKHQNQNRIDGLNKALSEVRANCSDSQLRADHQKKIAKQKDEVAERQQDLAEAKQKGDADKIAKRERKLAEAQEELKKLEARDY | 3.72 ± 0.12 h | 3.7 ± 0.11 h |  | 5.2 ± 0.22 h | 4.66 ± 0.41 h |  | 5.88 h | 7.58 ± 0.055 h | 5.07 ± 1.1 h | 9.61 ± 1.1 h | 4.12 h | 10.6 h
MIKFSATLLATLIAASVNAATVDLRIMETTDLHSNMMDFDYYKDTATEKFGLVRTASLINDARNEVKNSVLVDNGDLIQGSPLADYMSAKGLKAGDIHPVYKALNTLDYTVGTLGNHEFNYGLDYLKNALAGAKFPYVNANVIDARTKQPMFTPYLIKDTEVVDKDGKKQTLKIGYIGVVPPQIMGWDKANLSGKVTVNDITETVRKYVPEMREKGADVVVVLAHSGLSADPYKVMAENSVYYLSEIPGVNAIMFGHAHAVFPGKDFADIEGADIAKGTLNGVPAVMPGMWGDHLGVVDLQLSNDSGKWQVTQAKAEARPIYDIANKKSLAAEDSKLVETLKADHDATRQFVSKPIGKSADNMYSYLALVQDDPTVQVVNNAQKAYVEHYIQGDPDLAKLPVLSAAAPFKVGGRKNDPASYVEVEKGQLTFRNAADLYLYPNTLIVVKASGKEVKEWLECSAGQFNQIDPNSTKPQSLINWDGFRTYNFDVIDGVNYQIDVTQPARYDGECQMINANAERIKNLTFNGKPIDPNAMFLVATNNYRAYGGKFAGTGDSHIAFASPDENRSVLAAWIADESKRAGEIHPAADNNWRLAPIAGDKKLDIRFETSPSDKAAAFIKEKGQYPMNKVATDDIGFAIYQVDLSK | 6.84 ± 0.98 h | 6.56 ± 1.5 h | 6.23 ± 0.19 h | 7.14 ± 0.34 h | 5.91 ± 0.18 h | 3.34 ± 0.07 h | 5.93 ± 0.14 h | 12.9 ± 2.1 h | 6.327 ± 0.037 h | 12.2 ± 1.1 h | 5.23 ± 0.31 h | 11.212 ± 0.0065 h
MARTKLKFRLHRAVIVLFCLALLVALMQGASWFSQNHQRQRNPQLEELARTLARQVTLNVAPLMRTDSPDEKRIQAILDQLTDESRILDAGVYDEQGDLIARSGESVEVRDRLALDGKKAGGYFNQQIVEPIAGKNGPLGYLRLTLDTHTLATEAQQVDNTTNILRLMLLLSLAIGVVLTRTLLQGKRTRWQQSPFLLTASKPVPEEEESEKKE [P0AGC7] | 4.45 ± 0.17 h | 4.93 ± 0.059 h | 4.9 ± 1 h | 4.57 ± 0.81 h | 4.34 ± 0.23 h | 3.05 ± 0.13 h | 6.19 ± 1.3 h |  | 3.69 ± 0.5 h | 6.81 ± 0.24 h | 5.23 ± 0.067 h | 9.34 ± 0.24 h
MIKPTFLRRVAIAALLSGSCFSAAAAPPAPPVSYGVEEDVFHPVRAKQGMVASVDATATQVGVDILKEGGNAVDAAVAVGYALAVTHPQAGNLGGGGFMLIRSKNGNTTAIDFREMAPAKATRDMFLDDQGNPDSKKSLTSHLASGTPGTVAGFSLALDKYGTMPLNKVVQPAFKLARDGFIVNDALADDLKTYGSEVLPNHENSKAIFWKEGEPLKKGDTLVQANLAKSLEMIAENGPDEFYKGTIAEQIAQEMQKNGGLITKEDLAAYKAVERTPISGDYRGYQVYSMPPPSSGGIHIVQILNILENFDMKKYGFGSADAMQIMAEAEKYAYADRSEYLGDPDFVKVPWQALTNKAYAKSIADQIDINKAKPSSEIRPGKLAPYESNQTTHYSVVDKDGNAVAVTYTLNTTFGTGIVAGESGILLNNQMDDFSAKPGVPNVYGLVGGDANAVGPNKRPLSSMSPTIVVKDGKTWLVTGSPGGSRIITTVLQMVVNSIDYGLNVAEATNAPRFHHQWLPDELRVEKGFSPDTLKLLEAKGQKVALKEAMGSTQSIMVGPDGELYGASDPRSVDDLTAGY | 6.01 ± 0.77 h |  | 5.99 ± 0.16 h |  | 6.24 ± 0.43 h | 3.1 ± 0.34 h | 5.9124 ± 0.0049 h | 12.2 ± 2.3 h | 6.219 ± 0.013 h | 12.42 ± 0.05 h | 5.73 ± 0.52 h | 13.2 ± 1.1 h
MIDLYFAPTPNGHKITLFLEEAELDYRLIKVDLGKGGQFRPEFLRISPNNKIPAIVDHSPADGGEPLSLFESGAILLYLAEKTGLFLSHETRERAATLQWLFWQVGGLGPMLGQNHHFNHAAPQTIPYAIERYQVETQRLYHVLNKRLENSPWLGGENYSIADIACWPWVNAWTRQRIDLAMYPAVKNWHERIRSRPATGQALLKAQLGDERSDS |  | 4.37 ± 1.4 h | 4.61 ± 1.6 h | 4.28 ± 0.48 h | 2.94 ± 1.1 h | 3.27 ± 0.89 h | 4.84 ± 0.4 h | 9.73 ± 0.75 h | 4.02 ± 1.1 h | 6.01 ± 0.55 h | 5.6483 ± 0.0048 h | 11.48 ± 0.07 h
MLDQVCQLARNAGDAIMQVYDGTKPMDVVSKADNSPVTAADIAAHTVIMDGLRTLTPDVPVLSEEDPPGWEVRQHWQRYWLVDPLDGTKEFIKRNGEFTVNIALIDHGKPILGVVYAPVMNVMYSAAEGKAWKEECGVRKQIQVRDARPPLVVISRSHADAELKEYLQQLGEHQTTSIGSSLKFCLVAEGQAQLYPRFGPTNIWDTAAGHAVAAAAGAHVHDWQGKPLDYTPRESFLNPGFRVSIY | 4.77 ± 0.078 h | 4.77 ± 0.62 h | 4.6 ± 0.36 h | 5.51 ± 1.2 h | 4.29 ± 0.011 h | 2.97 ± 0.26 h | 5.69 ± 0.6 h | 10.58 ± 0.1 h | 4.76 ± 0.5 h | 7.931 ± 0.051 h | 6.3 ± 0.95 h | 10.7 ± 0.4 h
MNEFPVVLVINCGSSSIKFSVLDASDCEVLMSGIADGINSENAFLSVNGGEPAPLAHHSYEGALKAIAFELEKRNLNDSVALIGHRIAHGGSIFTESAIITDEVIDNIRRVSPLAPLHNYANLSGIESAQQLFPGVTQVAVFDTSFHQTMAPEAYLYGLPWKYYEELGVRRYGFHGTSHRYVSQRAHSLLNLAEDDSGLVVAHLGNGASICAVRNGQSVDTSMGMTPLEGLMMGTRSGDVDFGAMSWVASQTNQSLGDLERVVNKESGLLGISGLSSDLRVLEKAWHEGHERAQLAIKTFVHRIARHIAGHAASLRRLDGIIFTGGIGENSSLIRRLVMEHLAVLGLEIDTEMNNRSNSCGERIVSSENARVICAVIPTNEEKMIALDAIHLGKVNAPAEFA | 3.9 h |  |  |  |  |  |  |  |  |  |  | 
MELYREYPAWLIFLRRTYAVAAGVLALPFMLFWKDRARFYSYLHRVWSKTSDKPVWMDQAEKATGDFY [P0AAU2] | 2.55 ± 0.61 h |  |  |  | 1.38 ± 0.15 h |  |  | 3.9 h | 2.33 h | 3.85 h | 0.733 h | 3.35 ± 1.6 h
